# Test results from patent US20090203610A1, “METHODS OF TREATING OBESITY OR DIABETES USING NT-4/5” (RINAT NEUROSCIENCE CORPORATION, priority 2004, published 2009).
# B1: NT-4/5: mature human neurotrophin-4/5 (SEQ ID NO:1), obtained from Genentech or produced in E. coli (protein, listed as Homo sapiens)
# chain: GVSETAPASRRGELAVCDAVSGWVTDRRTAVDLRGREVEVLGEVPAAGGSPLRQYFFETRCKADNAEEGGPGAGGGGCRGVDRRHWVSECKAKQSYVRALTADAQGRVGWRWIRIDTACVCTLLSRTGRA
# Legend:
# [1] = system: NONcNZO-10 polygenic obese and diabetic mice; experiment: Body weight after intravenous NT-4/5 in NONcNZO-10 mice (Example 3); format: in vivo; details: i.v. 1 mg/kg
# Procedure: Experiment was also performed on the same type of mice by intravenous injection of vehicle (PBS) and NT-4/5 (1 mg/kg) on day 1 and on day 5. About 5% to about 10% reduction of body weight was observed between NT-4/5 treated group and vehicle group between day 2 and day 15.
# human TrkB = biological target: T1, human TrkB (Homo sapiens, UniProt Q16620); experiment: Receptor tyrosine phosphorylation (KIRA) in TrkB expressing cell line; format: cell-based
# T1 construct: expressed in transfected cells
# T1 sequence (Q16620 32-822): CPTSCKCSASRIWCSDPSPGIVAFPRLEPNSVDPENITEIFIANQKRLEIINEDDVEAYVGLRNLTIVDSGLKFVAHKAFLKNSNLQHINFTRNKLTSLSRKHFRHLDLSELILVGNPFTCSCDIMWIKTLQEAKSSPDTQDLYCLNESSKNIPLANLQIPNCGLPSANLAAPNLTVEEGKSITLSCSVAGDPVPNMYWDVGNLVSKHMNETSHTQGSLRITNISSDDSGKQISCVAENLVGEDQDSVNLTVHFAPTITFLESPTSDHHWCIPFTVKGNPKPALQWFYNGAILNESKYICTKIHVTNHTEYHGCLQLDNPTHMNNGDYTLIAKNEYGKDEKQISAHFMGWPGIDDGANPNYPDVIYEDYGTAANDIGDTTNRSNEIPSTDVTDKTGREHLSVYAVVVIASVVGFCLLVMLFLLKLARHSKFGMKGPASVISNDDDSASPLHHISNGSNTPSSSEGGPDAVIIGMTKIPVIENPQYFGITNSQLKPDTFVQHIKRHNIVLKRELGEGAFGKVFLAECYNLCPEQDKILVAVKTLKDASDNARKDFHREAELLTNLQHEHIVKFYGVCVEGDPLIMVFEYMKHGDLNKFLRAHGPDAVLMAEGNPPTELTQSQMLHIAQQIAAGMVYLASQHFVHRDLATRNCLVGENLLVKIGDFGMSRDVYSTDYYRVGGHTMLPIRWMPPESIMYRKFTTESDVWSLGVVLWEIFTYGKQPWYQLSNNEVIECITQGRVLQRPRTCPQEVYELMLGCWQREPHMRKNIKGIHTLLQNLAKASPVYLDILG
# [2] = system: NONcNZO-10 polygenic obese mice; experiment: Water intake, electrolyte balance and endocrine functions in NONcNZO-10 mice (Example 4); format: in vivo
# Description: Test animals: 40 male NONcNZO-10 polygenic obese mice obtained from Jackson Laboratory at 10 weeks of age weighing in the range of 26-32 g were used in this study.
# Administration of NT-4/5: NT-4/5 was produced in E. coli as descried in U.S. Pat. No. 6,184,360. The mice were divided into 6 groups of equivalent body weight and baseline blood glucose distribution (6-7 mice per group). […] A “paired-fed” control group received daily injection of vehicle, but were only fed with the same amount of food the 3 mg/kg group consumed the previous day. On the day when the treatment started (day 1), a baseline blood samples were collected for measuring glucose and triglyceride. Triglyceride level was measured on day 10. At the end of the study (day 12), a terminal blood sample was collected to determine glucose, triglyceride, electrolytes (Na, K, Cl), testoterone, corticosterone, thyroid hormone (total T4) and thyroid stimulating hormone (TSH) levels. Electrolytes, free testosterone, T4 and TSH levels of serum samples were measured by AniLytics (Gaithesburg, M.D) according to the standard protocols employed by the vendor. Other analytes were measured as described above. Body weight, food intake were monitored 5 days per week through out the entire study. Daily water intake was measured from day 5 through day 7.
# The effects of NT-4/5 treatment on water intake, electrolyte balance and endocrine functions were also tested. Water intake was measured from day 5 through 7. The electrolyte (i.e., Na, K, and Cl) concentrations were measured using the terminal blood samples taken on day 12. […] One way ANOVA followed by Dunnett's post-test were used for statistical analysis.
# db/db mice = experiment: Co-administration of Mab 1241 with NT4/5 in db/db mice (Example 15); format: in vivo; details: NT4/5 2 mg/kg s.c. daily day 1-5; Mab 1241 5 mg/kg i.p. single on day 1
# Description: Test animals: 32 Leptin receptor mutant db/db mice (BSK.Cg-m+/+Leprdb) obtained from Jackson Laboratory were used for the study. The mice were divided into four groups of 8 animals each (groups 1-4), with homogeneous initial body weight and glycemia values based on a randomization table. The mice were housed one per cage.
# Anti-NT4/5 and NT4/5: Both anti-NT4/5 monoclonal antibody Mab 1241 and human NT4/5 were obtained from Genentech. […] (data not shown).
# Administration of Mab 1241 and NT4/5: On day one, mice in groups 1-4 were treated with vehicle (PBS) subcutanouesly (s.c.), 5 mg/kg Mab 1241 intraperitioneally (i.p.), 5 mg/kg Mab 1241 intraperitioneally (i.p.) plus 2 mg/kg NT4/5 subcutanouesly (s.c.), and 2 mg/kg NT4/5 subcutanouesly (s.c.), respectively. On day 2 through day 5, group 1 was treated with a daily dose of vehicle (PBS) subcutanouesly (s.c.). Groups 3 and 4 were treated with a daily dose of 2 mg/kg NT4/5 subcutanouesly (s.c.).
# Baseline non-fasted blood glucose level was measured by One-Touch Ultra glucose meter from the tail bleed.
# human TrkC = biological target: T2, human TrkC (Homo sapiens, UniProt Q16288); experiment: Receptor tyrosine phosphorylation in trkC expressing cell line; format: cell-based
# T2 construct: expressed in transfected cells
# T2 sequence (Q16288 32-839): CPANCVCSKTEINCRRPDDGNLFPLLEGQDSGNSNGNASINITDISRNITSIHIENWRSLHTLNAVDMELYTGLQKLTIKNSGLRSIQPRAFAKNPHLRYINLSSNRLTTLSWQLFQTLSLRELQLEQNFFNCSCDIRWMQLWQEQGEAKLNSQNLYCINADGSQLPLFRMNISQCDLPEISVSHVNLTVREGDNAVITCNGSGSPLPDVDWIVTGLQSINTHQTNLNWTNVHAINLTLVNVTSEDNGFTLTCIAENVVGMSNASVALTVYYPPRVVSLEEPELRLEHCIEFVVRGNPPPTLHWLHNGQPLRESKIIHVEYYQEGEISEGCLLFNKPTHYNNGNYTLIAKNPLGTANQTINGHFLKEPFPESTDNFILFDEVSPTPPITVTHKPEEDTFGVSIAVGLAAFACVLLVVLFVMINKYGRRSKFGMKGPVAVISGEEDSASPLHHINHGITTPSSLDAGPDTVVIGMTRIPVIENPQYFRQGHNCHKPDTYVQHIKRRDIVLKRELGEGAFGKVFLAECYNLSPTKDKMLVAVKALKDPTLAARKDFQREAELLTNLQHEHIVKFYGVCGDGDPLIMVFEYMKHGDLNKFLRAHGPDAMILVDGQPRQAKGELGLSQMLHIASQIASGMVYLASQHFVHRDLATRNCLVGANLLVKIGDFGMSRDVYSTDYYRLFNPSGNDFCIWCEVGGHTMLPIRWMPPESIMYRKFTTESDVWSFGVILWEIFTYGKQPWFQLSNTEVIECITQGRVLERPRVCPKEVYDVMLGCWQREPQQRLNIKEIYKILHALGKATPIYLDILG
# Description: (§1) Assays of TrkB specific activation by pegylated NT-4/5: Stable cell lines expressing human TrkA, TrkB or TrkC were used to determine the functional activity, i.e. receptor phosphorylation, of NT-4/5 and pegylated NT-4/5 as previously described (Sadick et al. Experimental Cell Research 234: 354-361, 1997).
# as §1, with “and different forms of” for “and”
molecule,measurement,setting,value
B1,time body weight reduction maintained after 2 staggered intravenous doses,[1],up to 10 days
same,receptor tyrosine phosphorylation of TrkB-expressing cell line,human TrkB,increased receptor tyrosine phosphorylation
same,serum corticosterone levels,"[2]; 0.1-3 mg/kg/day, day 12",did not significantly change
same,testoterone levels,"[2]; 0.1-3 mg/kg/day, day 12",did not significantly change
same,thyroid stimulating hormone (TSH) level,[2]; compared to the vehicle control,no change
same,Total thyroxine T4 reduction,"[2]; daily 3 mg/kg, still within normal range",about 33%
same,treatment groups showing a statistically significant difference from vehicle in water intake,"[2]; day 5 through 7, 0.1, 0.3, 1 and 3 mg/kg",None
same,body weight,db/db mice,"small, but statistically insignificant reduction in body weight"
same,food intake,db/db mice,significantly reduced food intake on day 8 and day 10
same,non-fasted glucose level,db/db mice,"reduced non-fasted glucose level only on day 9, but not on day 4"
same,receptor tyrosine phosphorylation of trkC-expressing cell line,human TrkC,did not increase receptor tyrosine phosphorylation
